Measurements: PMC5897774, “Mitotic spindle association of TACC3 requires Aurora‐A‐dependent stabilization of a cryptic α‐helix” (The EMBO Journal, 2018)
Non-standard residues stand in square brackets, D forms with d. No end group written: not given here. pS = N[C@@H](COP(=O)(O)O)C(=O)O; FAM = fluorescein label

Legend:
[1] = NMR chemical shift index analysis of TACC3 549–570 helicity; type: physicochemical; conditions: 2 mM peptide, 20 mM Tris pH 7.2, 50 mM NaCl, 290 K, αH and αC secondary shifts
From the text: We used NMR spectroscopy to determine the extent to which these α‐helices are present in TACC3 in the absence of binding partners in solution. Chemical shift index (CSI) plots were created for phosphorylated and unphosphorylated TACC3^CID following standard methods (Fig 7D and E; Wishart & Sykes, 1994). In addition to calculating α‐proton chemical shifts we also measured secondary chemical shifts for α‐carbons. After the type of amino acid, the main contribution to chemical shifts of α‐carbons is the ψ angle and thus the backbone conformation. Proximity of charges or aromatic side chains which can strongly affect proton chemical shifts has virtually no effect on the chemical shifts of α‐carbons which makes them very robust probes of backbone conformation. […] We concluded that phosphorylation of S558 increases the propensity for α‐helix formation in TACC3, and we examined the structure to identify the mechanism.
For analysis of TACC3 549–570 helicity, synthetic peptides were weighed in to give a sample concentration of 2 mM in 20 mM Tris pH 7.2 and 50 mM NaCl. Spectra were recorded at a temperature of 290 K on a Bruker Avance‐Neo 600 MHz spectrometer equipped with a prodigy cryoprobe. Peptides were assigned using 2D NOESY, TOCSY and 13C HSQC spectra recorded with watergate and gradient coherence selection, respectively. […]

[2] = tested on: unphosphorylated Aurora‐A KD; experiment: Autophosphorylation assay of unphosphorylated Aurora‐A KD (Western blot αphospho‐T288); type: biochemical, human; conditions: unphosphorylated Aurora‐A 122–403, 1 h, room temperature
From the text: (§1) Figure 2 TACC3 523–534 forms a docking interaction on the N‐lobe of Aurora‐A • Magnified view of the site 1 interaction. • Schematic showing the key features of the TACC3/Aurora‐A interface. • FP assays of binding between site 1 of TACC3 and Aurora‐A. The sequence of TACC3 present in the complex crystal structure is shown (top) with the residues of the site 1 FP peptide coloured orange and mutated residues identified by coloured circles corresponding to the curves shown in the FP assay (below). Data represent mean of three experiments ± SD. […] Data represent mean of three experiments ± SD. […] Reactions were analysed by SDS–PAGE (above) and Western blotting with an αphospho‐T288 Aurora‐A antibody (below). […] They are listed as printed.
(§2) Autophosphorylation assays were performed as for radioactive ^32P‐ATP reactions using Aurora‐A 122–403 co‐expressed with lambda phosphatase for 1 h at room temperature with His‐Aurora‐A D274N as a substrate in replace of MBP. Reactions were resolved by SDS–PAGE and subject to Western blotting using an α‐phospho‐T288 Aurora‐A antibody (CST 2914, 1:2,000) as per the manufacturer's recommendation.

[3] = tested on: Aurora‐A KD (substrate: Aurora‐A D274N); experiment: Substrate phosphorylation of kinase‐dead Aurora‐A D274N by Aurora‐A KD (Western blot αphospho‐T288); type: biochemical, human; conditions: Aurora‐A D274N as substrate, 1 h, room temperature
From the text: as §1, §2

Aurora‐A [4] = target: T1, Aurora‐A (Homo sapiens, UniProt O14965, C290A/C393A); experiment: Radioactive 32P‐ATP kinase assay, MBP substrate; type: biochemical; conditions: 0.625 μM phosphorylated Aurora‐A, 5 μM TACC3^N‐ACID, 0.25 mg/ml MBP, 10 min, scintillation counting, duplicate
T1 construct: pET30TEV Aurora‐A 122–403 C290A, C393A; made in house
T1 sequence (O14965 122-403 C290A/C393A): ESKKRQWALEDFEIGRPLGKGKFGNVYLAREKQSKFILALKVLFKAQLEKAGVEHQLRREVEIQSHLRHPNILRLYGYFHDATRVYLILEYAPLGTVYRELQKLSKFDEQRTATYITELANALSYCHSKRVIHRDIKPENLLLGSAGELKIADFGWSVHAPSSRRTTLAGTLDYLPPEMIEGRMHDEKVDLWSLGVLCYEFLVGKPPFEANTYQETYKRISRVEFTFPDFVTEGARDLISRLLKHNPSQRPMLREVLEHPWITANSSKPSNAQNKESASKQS
Description: Figure EV2 Biochemical and structural analysis of the Aurora‐A/TACC3 complex • FP assay between FAM‐TACC3 519–570 and Aurora‐A. Reactions were performed in triplicate. Error bars represent standard deviation. […] Error bars represent standard deviation. […] This peptide was based on the location of a sulphate ion, originating from the crystallization solution, at the interface of the Aurora‐A/TACC3 interface in the crystal structure, close to TACC3 T534. […] Myelin basic protein (MBP) was used as a generic kinase substrate. Incorporation of radioisotope was measured by scintillation counting. Reactions were performed in duplicate. Error bars represent standard error. Assays were compared to the WT TACC3^N‐ACIDH6c reaction by one‐way ANOVA with Dunnett's post hoc test. […], **P < 0.01 and ****P < 0.0001. • Multiple sequence alignment of TACC3 (above) and Aurora‐A (below) orthologs spanning the interaction binding interface. Key binding residues are boxed in red. The TACC3 phosphorylation sites, S552 and S558, are boxed in blue. The TACC3 LL motif required for binding to CHC is boxed in green. The TACC3 α‐helix produced on binding to CHC is identified by a black line. TEXT PRINTED IN THE PICTURE: (A) TACC3 519-570: 3.0 ± 0.2 μM | (B) WT: 20 ± 1 μM | (B) R526A: 49 ± 2 μM | (B) phospho-T534: 14 ± 1 μM
Radioactive ^32P‐ATP kinase assays were performed as described previously (Burgess et al, 2015). In brief, 0.625 μM Aurora‐A^M3KD WT or selected mutant was incubated with 0.25 mg/ml MBP alone and in the presence of 5 μM TACC3^N‐ACID WT or mutant for 10 min. Reactions were terminated by the addition of 2% (v/v) orthophosphoric acid. Samples were spotted onto P81 Whatman paper, washed extensively with 0.2% (v/v) orthophosphoric acid and incorporation of radioisotope measured by scintillation counting.

Aurora‐A [5] = target: T1, Aurora‐A; set-up: method as in Burgess et al, 2015; conditions: previous data, effect of F525A mutation; ref Burgess et al, 2015; read-out: K d of the interaction; cited from earlier work
[6] = target: WT Aurora‐A (of the FP assays) (human) (UniProt O14965)
[7] = target: FAM‐WT TACC3 519–570 (human) (UniProt Q9Y6A5); experiment: fluorescence polarisation; FAM‐TACC3 peptides with Aurora‐A; performed as in Richards et al, 2016; triplicate; one‐site total binding fit; Kd ± SE
[8] = target: FAM‐TACC3 522–536 phosphorylated on T534 (human) (UniProt Q9Y6A5); experiment: as above
[9] = target: FAM‐TACC3 522–536 L532A (human) (UniProt Q9Y6A5); experiment: as above
[10] = target: FAM‐TACC3 522–536 R526A (human) (UniProt Q9Y6A5); experiment: as above
[11] = target: FAM‐TACC3 522–536 (WT site 1 peptide) (human) (UniProt Q9Y6A5); experiment: as above
[12] = target: FAM‐TACC3 522–536 F525A (human) (UniProt Q9Y6A5); experiment: as above
[13] = target: T2, CHC 1–574 (clathrin heavy chain propeller‐ankle fragment) (UniProt Q00610 1-574); experiment: FP
T2 chain: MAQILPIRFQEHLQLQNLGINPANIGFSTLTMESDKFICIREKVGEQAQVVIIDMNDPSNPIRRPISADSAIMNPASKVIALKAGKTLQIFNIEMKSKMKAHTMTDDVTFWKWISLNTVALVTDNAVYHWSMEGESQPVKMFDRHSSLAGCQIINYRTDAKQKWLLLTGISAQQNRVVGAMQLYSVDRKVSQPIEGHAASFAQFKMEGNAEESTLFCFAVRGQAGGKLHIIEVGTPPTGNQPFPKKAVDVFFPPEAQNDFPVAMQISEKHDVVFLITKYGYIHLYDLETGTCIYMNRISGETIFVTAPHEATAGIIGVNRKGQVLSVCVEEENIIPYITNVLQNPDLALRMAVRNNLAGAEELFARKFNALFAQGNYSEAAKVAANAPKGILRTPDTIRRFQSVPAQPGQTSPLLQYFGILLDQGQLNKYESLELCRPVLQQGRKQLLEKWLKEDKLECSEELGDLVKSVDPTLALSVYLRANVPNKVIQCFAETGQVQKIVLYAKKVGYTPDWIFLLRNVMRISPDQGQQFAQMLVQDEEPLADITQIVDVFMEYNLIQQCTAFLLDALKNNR

Aurora‐A 122–403 D274N = target: T3, Aurora‐A 122–403 D274N (human, UniProt O14965 122-403, D274N); experiment: NMR titration; 13C/15N‐labelled TACC3 peptide (300 μM) alone and in complex with Aurora‐A 122–403 D274N; 20 mM KPO4 pH 7.0, 50 mM NaCl, 1 mM DTT; 298 K; chemical shift perturbation; conditions: both partners purified
T3 construct: also called Aurora‐A^KD D274N; source: expressed and purified as described in previous work (Burgess et al, 2015)
T3 sequence (looked up): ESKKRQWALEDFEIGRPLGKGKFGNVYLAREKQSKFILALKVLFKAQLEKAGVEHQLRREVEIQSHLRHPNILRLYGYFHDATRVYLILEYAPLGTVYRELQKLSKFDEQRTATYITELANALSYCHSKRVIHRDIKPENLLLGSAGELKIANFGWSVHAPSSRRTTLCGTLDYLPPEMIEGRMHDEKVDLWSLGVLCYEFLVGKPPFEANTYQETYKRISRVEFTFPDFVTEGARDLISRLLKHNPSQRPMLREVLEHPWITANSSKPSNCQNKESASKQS

[14] = target: T2, CHC 1–574 (clathrin heavy chain …); experiment: FP
[15] = target: T4, CHC 1–574 (clathrin heavy chain propeller‐ankle fragment) (UniProt Q00610 1-574); experiment: fluorescence polarisation; CHC proteins serially diluted in 20 mM HEPES–NaOH pH 7.5, 200 mM NaCl, 5 mM DTT; 50 nM FAM‐labelled TACC3 peptide; 30 min at room temperature; read at 25°C; conditions: both partners purified
T4 construct: source: modified pGEX vector
T4 sequence (looked up): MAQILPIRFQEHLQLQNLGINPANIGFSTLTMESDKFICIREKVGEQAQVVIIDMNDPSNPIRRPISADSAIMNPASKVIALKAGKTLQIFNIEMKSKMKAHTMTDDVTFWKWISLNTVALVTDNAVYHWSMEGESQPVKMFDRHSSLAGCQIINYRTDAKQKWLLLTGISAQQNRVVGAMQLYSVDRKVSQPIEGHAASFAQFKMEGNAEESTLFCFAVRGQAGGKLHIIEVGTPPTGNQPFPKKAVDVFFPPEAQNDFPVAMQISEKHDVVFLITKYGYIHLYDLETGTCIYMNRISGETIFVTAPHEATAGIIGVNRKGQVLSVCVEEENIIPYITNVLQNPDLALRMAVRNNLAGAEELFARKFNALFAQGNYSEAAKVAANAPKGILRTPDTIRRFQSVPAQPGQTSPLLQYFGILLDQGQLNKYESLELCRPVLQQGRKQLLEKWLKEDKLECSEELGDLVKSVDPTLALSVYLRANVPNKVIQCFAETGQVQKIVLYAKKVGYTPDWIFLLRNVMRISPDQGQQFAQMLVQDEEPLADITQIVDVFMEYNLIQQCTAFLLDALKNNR

FKESALRKQSLYLKFDPLLRDS [phosphorylated peptide, synthetic TACC3 549–570 peptide phosphorylated at S558, used for NMR]
propensity for helix formation (CSI) [1]: much higher propensity

TACC3^N‐ACID F525A: TACC3^N-ACID with F525A mutation (ELKEESARDPAEVLGTGAEVDYLEQFGTSSFKESALRKQSLYLKF; not fully specified (C-terminus))
Aurora‐A autophosphorylation on T288 [2]: reduced | substrate phosphorylation on T288 (Aurora‐A D274N) [3]: reduced | stimulation of Aurora‐A activity (Aurora‐A [4]): twofold–threefold | Kd (Aurora‐A [5]): > 150 µM

TACC3 519–563‐H6c (WT TACC3^N‐ACIDH6c) (from UniProt Q9Y6A5 519-563) (domain or fragment)
32P‐ATP kinase assay with MBP as substrate: stimulation of Aurora‐A activity [6]: 8 fold

FKESALRKQSLYLKFDPLLRDS [unphosphorylated peptide, synthetic TACC3 549–570 peptide, unphosphorylated, used for NMR]
propensity for helix formation (CSI) [1]: tendency towards helix formation

WT Aurora‐A (of the FP assays) (from UniProt O14965 122-403) (domain or fragment)
Kd [7]: 3 µM | Kd [8]: 14 µM | Kd [9]: 251 µM | Kd [10]: 49 µM | Kd [11]: 20 µM | Kd [12]: 2300 µM

B1: FAM‐phospho‐TACC3^CID R555A, K556A (peptide)
peptide: {FAM}-FKESALAAQ[pS]LYLKFDPLLRDS
Kd [13]: 209 µM

B2: ^13C^15N TACC3 519–540 (domain or fragment, human, UniProt Q9Y6A5 519-540, looked up)
chain: ELKEESFRDPAEVLGTGAEVDY
modifications: also: 13C, 15N labelled
notes: TACC3, human, aa519–540 (stop codon at residue 541 of pETM6T1 TACC3 519–563); source: expressed and purified as described for 13C15N‐TACC3 519–563 (Burgess et al, 2015)
binding result (Aurora‐A 122–403 D274N): binds

B3: FAM‐phospho‐TACC3^CID L566A, L567A (peptide)
chain: {FAM}-FKESALRKQ[pS]LYLKFDPAARDS
Kd [14]: 345 µM

B4: FAM‐non‐phosphorylated TACC3^CID (aa549–570) (peptide, UniProt Q9Y6A5 549-570, looked up)
peptide: {FAM}-FKESALRKQSLYLKFDPLLRDS
notes: TACC3, human, aa549–570 (TACC3^CID); also called unphosphorylated TACC3^CID peptide; S558; source: FAM‐labelled peptide (FAM‐TACC3 peptides: PPR, Cambridge; Almac, Craigavon)
Kd [15]: 216 µM
